{"source": "paper PMC11825094", "about": "“Tonic ubiquitination of the central body weight regulator melanocortin receptor 4 (MC4R) promotes its constitutive exit from cilia” (PLOS Biology, 2025)", "molecular_target": "melanocortin receptor 4 (MC4R)-3xmNeonGreen, human (human, UniProt P32245 1-332, a fraction carries K63-linked polyubiquitin chains (smear above the main band))", "sequence (P32245 whole entry)": "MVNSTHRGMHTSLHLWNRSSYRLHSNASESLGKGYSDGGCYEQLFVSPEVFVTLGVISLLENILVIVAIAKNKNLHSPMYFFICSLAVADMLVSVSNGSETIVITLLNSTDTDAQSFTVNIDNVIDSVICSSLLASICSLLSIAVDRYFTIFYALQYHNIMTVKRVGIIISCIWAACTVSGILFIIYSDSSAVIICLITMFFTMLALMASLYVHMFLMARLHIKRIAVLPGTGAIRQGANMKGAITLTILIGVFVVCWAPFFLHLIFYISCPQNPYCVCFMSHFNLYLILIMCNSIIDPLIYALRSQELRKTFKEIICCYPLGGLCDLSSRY", "experiment": "cell-based or functional assay", "data": [{"binder": "melanocortin receptor accessory protein 2 (MRAP2)-3xFLAG, murine (natural protein, mouse, UniProt D3Z1Q2 3-207, looked up) MSAQRLASNRTSPQSPSNSDYTWEYEYYEIGPVSFEGLKAHKYSIVIGFWVGLAVFVIFMFFVLTLLTKTGAPHQDNAESSERRFRMNSFVSDFGKPLESDKVFSRQGNEESRSLFHCYINEVEHLDRVKVCHQTTAIDSDVHLQEASRSSGRPEEELARFMKFDIPNFVNTEQSSFGEDDLLISEAPVLLENKPVSQTSRIDLD", "values": [{"measurement": "ciliary fluorescence of MRAP2^3FLAG in IMCD3-[MRAP2^3FLAG/MC4R^3NG] cells treated with 5 nM HS014, time course, against vehicle", "result": 11, "unit": "fold"}, {"measurement": "ciliary fluorescence of MRAP2^3FLAG in IMCD3-[MRAP2^3FLAG/MC4R^3NG] cells treated with 50 nM AgRP, time course, against vehicle", "result": 25, "unit": "fold"}]}]}
